From patent US20220323445A1, “REDUCING IMMUNOGENICITY TO PEGLOTICASE” (Horizon Therapeutics Ireland DAC, priority 2020, published 2022)

Tested on: serum uric acid (sUA)
Assay: Serum uric acid (sUA) levels and sUA responders, open-label study of pegloticase with MTX (NCT03635957)
Type: in vivo, human
Experimental: The primary objective is to estimate the response rate during Month 6 (Weeks 20, 22, and 24), as measured by the sustained normalization of serum uric acid (SUA) to <6 mg/dL for at least 80% of the time during Month 6 in subjects receiving KXX with MTX.
The primary efficacy outcome endpoint is the sustained normalization of SUA to <6 mg/dL for at least 80% of the time during month 6 (weeks 20, 22, and 24) in subjects receiving KXX with MTX. This is slightly below the urate solubility threshold and this threshold has been the accepted standard for nearly all modern gout trials. Participants who achieve this endpoint were classified as “responders.” Serum uric acid (SUA) responders may also be defined as participants achieving and maintaining SUA <6 mg/dL for at least 80% of the time during Month 6 (Weeks 20, 22, and 24).
Blood samples may be collected prior to each pegloticase infusion for measurement of SUA levels using the Beckman Coulter AU System Uric Acid procedure. Participants were declared “non-responders” if there were SUA measures >6 mg/dL at 2 consecutive study visits beginning with the week 2 visit. […] If the SUA goal is not maintained before or at the 12-week mark, it was assumed that the participant had developed clinically relevant anti-pegloticase antibody and they received no further infusions. This assumption and subsequent discontinuation of pegloticase was consistent with the protocol of large phase III randomized controlled trials and the product label. A formal stopping rule was 2 occasions of SUA levels of greater than 6 mg/dL.
Clinical Chemistry—Blood samples were collected prior to each pegloticase infusion for measurement of SUA levels (primary efficacy parameter) using the Beckman Coulter AU System Uric Acid procedure. In this procedure uric acid is converted to hydrogen peroxide. Hydrogen peroxide reacts with reagent to produce a chromophore which is read bichromatically at 660/800 nm. The amount of dye formed is proportional to the uric acid concentration in the sample.
Serum samples for measurement of SUA levels were collected at the Screening Visit, the Week −4 Visit (prior to the first dose of MTX), and the Week −2 Visit during the MTX Run-in Period; within 48 hours prior to each pegloticase infusion and after the end of each pegloticase infusion prior to discharge from the site during the Pegloticase+IMM Period; at the non-infusion Week 52/End of Study/Early Termination Visits and at the Post Treatment 3 and 6 Month Follow-up Visits. Additional serum samples for SUA levels were collected at optional non-infusion (Frequent Sampling) Visits at Weeks 1 and 7. […] Subjects with SUA level >6 mg/dL at 2 consecutive visits beginning at Week 2 visit discontinued treatment, completed the End of Pegloticase Infusion Visit procedures within 2 weeks and continued the subject visits according to the protocol (without treatment).
Efficacy analyses were performed using the modified intention-to-treat (mITT) population, defined as all enrolled subjects who received ≥1 dose of pegloticase. The proportion of Month 6 responders was summarized, along with a 95% confidence interval for the proportion. The proportion of Month 3 and overall (Months 3 and 6 combined) responders was analyzed similarly.
A subject was declared a non-responder if the subject had SUA level >6 mg/dL at 2 consecutive study visits beginning with the Week 2 Visit. In addition, a subject who withdraws from study treatment for any reason after the first dose of pegloticase in the KXX+MTX Period and prior to Month 6 (for the primary endpoint) or Month 3 (for the secondary endpoint) was considered a non-responder if SUA values were not collected at the planned time points.
Patients were administered oral MTX (15 mg/week) and folate (1 mg/day) 4 weeks prior to the first pegloticase infusion (Day 1) and throughout the pegloticase treatment period. […]

[1] = Week 34 - Pre-Infusion, Month 6 sUA Responders
[2] = Week 34 - Pre-Infusion, mITT, n=10
[3] = Week 36 - Post-Infusion, Month 6 sUA Responders
[4] = Week 36 - Post-Infusion, mITT, n=6
[5] = Week 36 - Pre-Infusion, Month 6 sUA Responders
[6] = Week 36 - Pre-Infusion, mITT, n=9
[7] = Week 38 - Pre-Infusion, Month 6 sUA Responders
[8] = Week 38 - Pre-Infusion, mITT, n=5
[9] = Week 40 - Pre-Infusion, Month 6 sUA Responders
[10] = Week 40 - Pre-Infusion, mITT, n=3
[11] = Week 42 - Pre-Infusion, Month 6 sUA Responders
[12] = Week 42 - Pre-Infusion, mITT, n=3
[13] = Week 44 - Pre-Infusion, Month 6 sUA Responders

B1: pegloticase (protein)
chain: TYKKNDEVEFVRTGYGKDMIKVLHIQRDGKYHSIKEVATTVQLTLSSKKDYLHGDNSDVIPTDTIKNTVNVLAKFKGIKSIETFAVTICEHFLSSFKHVIRAQVYVEEVPWKRFEKNGVKHVHAFIYTPTGTHFCEVEQIRNGPPVIHSGIKDLKVLKTTQSGFEGFIKDQFTTLPEVKDRCFATQVYCKWRYHQGRDVDFEATWDTVRSIVLQKFAGPYDKGEYSPSVQKTLYDIQVLTLGQVPEIEDMEISLPNIHYLNIDMSKMGLINKEEVLLPLDNPYGKITGTVKRKLSSRL
modifications: monomethoxy PEG conjugated; Krystexxa Sequence
notes: covalent conjugate of uricase produced by a genetically modified strain of Escherichia coli and monomethoxypoly (ethylene glycol)
sUA < 6 mg/dL, % [1]: (100%)
sUA Change from Baseline, Mean [1]: -8.47 mg/dL
sUA Change from Baseline, Median [1]: -7.95 mg/dL
sUA Observed, Mean [1]: 0.82 mg/dL
sUA Observed, Median [1]: 0.30 mg/dL
sUA < 6 mg/dL, n (%) [2]: 10 (100%)
sUA Change from Baseline, Mean (SD) [2]: −8.47 (3.248) mg/dL
sUA Change from Baseline, Median [2]: -7.95 mg/dL
sUA Observed, Mean (SD) [2]: 0.82 (1.046) mg/dL
sUA Observed, Median [2]: 0.30 mg/dL
sUA < 6 mg/dL, % [3]: (100%)
sUA Change from Baseline, Mean [3]: -9.38 mg/dL
sUA Change from Baseline, Median [3]: -9.20 mg/dL
sUA Observed, Mean [3]: 0.30 mg/dL
sUA Observed, Median [3]: 0.30 mg/dL
sUA < 6 mg/dL, n (%) [4]: 6 (100%)
sUA Change from Baseline, Mean (SD) [4]: −9.38 (3.799) mg/dL
sUA Change from Baseline, Median [4]: -9.20 mg/dL
sUA Observed, Mean (SD) [4]: 0.30 (0.000) mg/dL
sUA Observed, Median [4]: 0.30 mg/dL
sUA < 6 mg/dL, % [5]: ( 88.9%)
sUA Change from Baseline, Mean [5]: -7.90 mg/dL
sUA Change from Baseline, Median [5]: -8.60 mg/dL
sUA Observed, Mean [5]: 1.58 mg/dL
sUA Observed, Median [5]: 0.30 mg/dL
sUA < 6 mg/dL, n (%) [6]: 8 (88.9%)
sUA Change from Baseline, Mean (SD) [6]: −7.90 (4.094) mg/dL
sUA Change from Baseline, Median [6]: -8.60 mg/dL
sUA Observed, Mean (SD) [6]: 1.58 (2.425) mg/dL
sUA Observed, Median [6]: 0.30 mg/dL
sUA < 6 mg/dL, % [7]: (100%)
sUA Change from Baseline, Mean [7]: -8.41 mg/dL
sUA Change from Baseline, Median [7]: -8.60 mg/dL
sUA Observed, Mean [7]: 0.93 mg/dL
sUA Observed, Median [7]: 0.30 mg/dL
sUA < 6 mg/dL, n (%) [8]: 5 (100%)
sUA Change from Baseline, Mean (SD) [8]: −8.41 (5.229) mg/dL
sUA Change from Baseline, Median [8]: -8.60 mg/dL
sUA Observed, Mean (SD) [8]: 0.93 (1.583) mg/dL
sUA Observed, Median [8]: 0.30 mg/dL
sUA < 6 mg/dL, % [9]: (100%)
sUA Change from Baseline, Mean [9]: -11.30 mg/dL
sUA Change from Baseline, Median [9]: -9.80 mg/dL
sUA Observed, Mean [9]: 0.30 mg/dL
sUA Observed, Median [9]: 0.30 mg/dL
sUA < 6 mg/dL, n (%) [10]: 3 (100%)
sUA Change from Baseline, Mean (SD) [10]: −11.30 (3.686) mg/dL
sUA Change from Baseline, Median [10]: -9.80 mg/dL
sUA Observed, Mean (SD) [10]: 0.30 (0.000) mg/dL
sUA Observed, Median [10]: 0.30 mg/dL
sUA < 6 mg/dL, % [11]: (100%)
sUA Change from Baseline, Mean [11]: -11.30 mg/dL
sUA Change from Baseline, Median [11]: -9.80 mg/dL
sUA Observed, Mean [11]: 0.30 mg/dL
sUA Observed, Median [11]: 0.30 mg/dL
sUA < 6 mg/dL, n (%) [12]: 3 (100%)
sUA Change from Baseline, Mean (SD) [12]: −11.30 (3.686) mg/dL
sUA Change from Baseline, Median [12]: -9.80 mg/dL
sUA Observed, Mean (SD) [12]: 0.30 (0.000) mg/dL
sUA Observed, Median [12]: 0.30 mg/dL
sUA < 6 mg/dL, % [13]: (100%)
sUA Change from Baseline, Mean [13]: -10.55 mg/dL
sUA Change from Baseline, Median [13]: -9.80 mg/dL
sUA Observed, Mean [13]: 1.05 mg/dL
sUA Observed, Median [13]: 0.30 mg/dL
